# Experimental data: patent US20200407715
# Read-outs that look alike come from different tables or passages of the source.
# Columns and labels:
# [1] = system: T1, Cas12i1 (IVTT-expressed) (uncultured freshwater metagenome); conditions: IVTT gene silencing
# T1 sequence: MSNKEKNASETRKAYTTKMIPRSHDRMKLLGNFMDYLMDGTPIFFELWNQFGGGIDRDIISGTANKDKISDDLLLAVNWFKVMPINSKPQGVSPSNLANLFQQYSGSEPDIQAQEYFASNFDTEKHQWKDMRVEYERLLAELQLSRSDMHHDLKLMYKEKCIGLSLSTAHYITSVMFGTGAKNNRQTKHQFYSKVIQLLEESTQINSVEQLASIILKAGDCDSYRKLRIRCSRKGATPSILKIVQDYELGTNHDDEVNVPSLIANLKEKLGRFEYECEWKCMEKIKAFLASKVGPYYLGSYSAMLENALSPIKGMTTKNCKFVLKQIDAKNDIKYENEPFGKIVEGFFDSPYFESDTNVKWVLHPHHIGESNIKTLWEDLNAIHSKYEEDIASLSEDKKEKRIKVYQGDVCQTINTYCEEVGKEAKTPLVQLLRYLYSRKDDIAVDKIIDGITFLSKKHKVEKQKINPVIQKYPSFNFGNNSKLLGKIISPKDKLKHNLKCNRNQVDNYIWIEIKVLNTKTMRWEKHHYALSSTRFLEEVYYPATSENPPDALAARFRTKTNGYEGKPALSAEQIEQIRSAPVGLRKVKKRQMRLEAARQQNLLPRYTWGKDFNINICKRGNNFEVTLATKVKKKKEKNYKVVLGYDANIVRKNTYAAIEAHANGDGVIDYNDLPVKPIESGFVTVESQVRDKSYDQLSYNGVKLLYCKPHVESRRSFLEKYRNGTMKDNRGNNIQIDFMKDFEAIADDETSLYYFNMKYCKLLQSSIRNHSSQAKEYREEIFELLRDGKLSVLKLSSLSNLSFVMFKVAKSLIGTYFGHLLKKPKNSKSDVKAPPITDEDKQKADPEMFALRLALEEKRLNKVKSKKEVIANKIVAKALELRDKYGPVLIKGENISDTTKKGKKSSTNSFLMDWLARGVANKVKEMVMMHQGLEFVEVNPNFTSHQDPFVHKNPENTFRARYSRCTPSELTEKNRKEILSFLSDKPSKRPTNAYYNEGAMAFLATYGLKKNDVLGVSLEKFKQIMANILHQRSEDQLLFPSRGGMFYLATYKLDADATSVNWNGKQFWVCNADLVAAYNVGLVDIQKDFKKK
# [2] = system: T1, Cas12i1 (IVTT-expressed) (uncultured freshwater metagenome); conditions: IVTT gene silencing, after 400 min
# [3] = system: T2, Cas12i2 mammalian construct (uncultured freshwater lake metagenome); experiment: cell_activity; conditions: PAM TTC; 293T cells, 72 h; indels centred around +20 from PAM
# T2 sequence: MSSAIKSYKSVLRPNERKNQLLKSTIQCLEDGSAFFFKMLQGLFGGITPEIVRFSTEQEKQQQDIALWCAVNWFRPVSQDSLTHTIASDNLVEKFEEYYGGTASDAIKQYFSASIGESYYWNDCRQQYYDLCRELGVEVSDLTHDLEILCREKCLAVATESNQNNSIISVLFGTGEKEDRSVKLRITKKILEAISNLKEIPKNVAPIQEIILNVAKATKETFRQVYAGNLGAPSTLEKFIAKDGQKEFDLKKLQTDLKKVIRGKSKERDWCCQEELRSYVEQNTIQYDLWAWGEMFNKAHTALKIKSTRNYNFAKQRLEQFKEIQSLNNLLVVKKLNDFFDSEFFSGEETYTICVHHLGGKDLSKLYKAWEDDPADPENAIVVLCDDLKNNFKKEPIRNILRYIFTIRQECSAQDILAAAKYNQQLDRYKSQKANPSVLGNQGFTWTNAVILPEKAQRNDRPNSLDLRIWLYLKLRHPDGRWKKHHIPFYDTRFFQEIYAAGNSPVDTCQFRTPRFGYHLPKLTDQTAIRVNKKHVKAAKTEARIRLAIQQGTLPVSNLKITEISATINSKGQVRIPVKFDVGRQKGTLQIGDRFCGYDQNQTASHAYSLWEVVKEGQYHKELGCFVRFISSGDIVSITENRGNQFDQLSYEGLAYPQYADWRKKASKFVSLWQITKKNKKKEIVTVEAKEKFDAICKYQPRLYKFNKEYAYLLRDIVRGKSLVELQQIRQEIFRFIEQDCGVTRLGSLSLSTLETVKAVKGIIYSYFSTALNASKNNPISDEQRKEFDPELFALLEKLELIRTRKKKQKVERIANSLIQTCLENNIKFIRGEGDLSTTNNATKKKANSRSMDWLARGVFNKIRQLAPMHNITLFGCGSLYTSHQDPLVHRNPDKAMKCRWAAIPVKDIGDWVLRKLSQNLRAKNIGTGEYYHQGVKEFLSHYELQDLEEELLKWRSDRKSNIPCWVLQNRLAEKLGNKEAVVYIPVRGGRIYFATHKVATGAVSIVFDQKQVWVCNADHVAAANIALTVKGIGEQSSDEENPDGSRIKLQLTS
substance,measurement,setting,value
GFP guide complementary to coding strand ; GFP plasmid (sigma 28 promoter),activity (fold GFP depletion),[1],> 4
GFP guide complementary to template strand ; GFP plasmid (sigma 28 promoter),activity (fold GFP depletion),[2],2
"VEGFA guide for Cas12i2 (pre-crRNA) ; VEGFA locus target, TTC PAM",activity,[3],13 % indel
